In PMC7611026 (Journal of molecular biology, 2008):

Experiments:
[1] = molecular target: RNase E(1–762), hexahistidine-tagged, coexpressed with RhlB (E. coli) (UniProt P21513); test: pull-down + SEC
[2] = molecular target: RNase E, genomically encoded, C-terminally FLAG-tagged (rne-FLAG, strain TM522) (E. coli K12, UniProt P21513 1-1061); test: co-IP
[3] = molecular target: T1, RhlB, individually prepared recombinant (E. coli, UniProt P0A8J8 1-421); test: cross-linking
T1 sequence: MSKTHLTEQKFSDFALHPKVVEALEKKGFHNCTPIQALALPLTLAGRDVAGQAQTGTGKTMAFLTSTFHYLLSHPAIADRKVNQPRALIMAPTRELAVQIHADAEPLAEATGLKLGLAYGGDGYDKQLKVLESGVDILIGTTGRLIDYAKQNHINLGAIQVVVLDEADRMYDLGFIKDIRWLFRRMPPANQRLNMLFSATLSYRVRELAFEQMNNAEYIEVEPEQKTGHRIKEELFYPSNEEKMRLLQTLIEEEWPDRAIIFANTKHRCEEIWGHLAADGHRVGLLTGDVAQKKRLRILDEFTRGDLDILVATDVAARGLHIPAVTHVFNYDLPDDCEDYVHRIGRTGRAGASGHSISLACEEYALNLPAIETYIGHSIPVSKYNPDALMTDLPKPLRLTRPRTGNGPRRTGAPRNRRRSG

RNase E, genomically encoded, C-terminally FLAG-tagged (rne-FLAG, strain TM522), sequence (P21513 whole entry): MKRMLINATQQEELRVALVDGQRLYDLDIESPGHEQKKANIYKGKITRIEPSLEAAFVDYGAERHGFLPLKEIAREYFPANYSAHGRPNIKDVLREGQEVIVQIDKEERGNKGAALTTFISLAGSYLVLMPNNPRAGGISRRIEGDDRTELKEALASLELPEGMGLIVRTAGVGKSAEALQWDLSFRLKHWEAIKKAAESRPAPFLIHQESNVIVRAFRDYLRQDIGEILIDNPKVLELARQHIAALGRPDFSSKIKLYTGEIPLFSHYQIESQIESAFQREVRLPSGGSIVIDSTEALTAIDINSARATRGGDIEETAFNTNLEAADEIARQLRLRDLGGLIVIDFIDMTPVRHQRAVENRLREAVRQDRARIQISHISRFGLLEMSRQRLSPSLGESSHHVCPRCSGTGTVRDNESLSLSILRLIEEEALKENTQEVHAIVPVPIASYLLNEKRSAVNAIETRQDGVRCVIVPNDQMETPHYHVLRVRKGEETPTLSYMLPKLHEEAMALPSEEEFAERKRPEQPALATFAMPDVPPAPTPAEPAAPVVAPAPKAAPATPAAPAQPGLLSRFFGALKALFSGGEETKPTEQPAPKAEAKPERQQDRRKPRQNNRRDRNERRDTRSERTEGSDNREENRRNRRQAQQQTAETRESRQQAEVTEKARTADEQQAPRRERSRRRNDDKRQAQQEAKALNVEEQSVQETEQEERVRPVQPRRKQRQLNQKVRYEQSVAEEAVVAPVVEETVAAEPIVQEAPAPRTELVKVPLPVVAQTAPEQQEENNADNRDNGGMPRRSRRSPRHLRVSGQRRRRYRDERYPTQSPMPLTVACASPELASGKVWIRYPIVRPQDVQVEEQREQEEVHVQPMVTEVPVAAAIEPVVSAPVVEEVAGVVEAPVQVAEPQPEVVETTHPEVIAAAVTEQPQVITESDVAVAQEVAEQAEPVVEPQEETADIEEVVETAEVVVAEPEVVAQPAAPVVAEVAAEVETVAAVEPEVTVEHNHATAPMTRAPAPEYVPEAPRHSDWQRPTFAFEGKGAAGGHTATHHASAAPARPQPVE
RNase E(1–762), hexahistidine-tagged, coexpressed with RhlB (E. coli), sequence (P21513 1-762): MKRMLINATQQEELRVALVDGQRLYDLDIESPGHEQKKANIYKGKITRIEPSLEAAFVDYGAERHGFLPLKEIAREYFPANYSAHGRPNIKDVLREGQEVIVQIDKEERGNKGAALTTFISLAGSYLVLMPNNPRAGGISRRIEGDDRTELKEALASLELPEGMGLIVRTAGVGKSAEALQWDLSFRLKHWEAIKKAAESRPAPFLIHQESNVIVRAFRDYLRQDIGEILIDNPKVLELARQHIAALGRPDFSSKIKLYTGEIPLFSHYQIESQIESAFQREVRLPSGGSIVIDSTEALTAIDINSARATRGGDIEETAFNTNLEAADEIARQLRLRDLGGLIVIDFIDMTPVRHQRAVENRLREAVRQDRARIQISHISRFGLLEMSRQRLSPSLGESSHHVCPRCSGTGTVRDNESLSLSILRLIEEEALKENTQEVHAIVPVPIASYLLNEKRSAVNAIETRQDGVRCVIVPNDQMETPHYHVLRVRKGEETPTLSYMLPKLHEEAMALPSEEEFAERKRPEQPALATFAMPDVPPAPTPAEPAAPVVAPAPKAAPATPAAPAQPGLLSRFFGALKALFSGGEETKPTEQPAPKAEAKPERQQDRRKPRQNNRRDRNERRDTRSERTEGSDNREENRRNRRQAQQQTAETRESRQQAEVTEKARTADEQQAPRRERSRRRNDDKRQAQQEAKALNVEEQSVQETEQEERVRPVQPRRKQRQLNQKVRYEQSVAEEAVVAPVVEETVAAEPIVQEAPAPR

B1: RNA helicase B (RhlB), recombinant, coexpressed with RNase E from pRSF_rnerhlB (enzyme)
chain: MSKTHLTEQKFSDFALHPKVVEALEKKGFHNCTPIQALALPLTLAGRDVAGQAQTGTGKTMAFLTSTFHYLLSHPAIADRKVNQPRALIMAPTRELAVQIHADAEPLAEATGLKLGLAYGGDGYDKQLKVLESGVDILIGTTGRLIDYAKQNHINLGAIQVVVLDEADRMYDLGFIKDIRWLFRRMPPANQRLNMLFSATLSYRVRELAFEQMNNAEYIEVEPEQKTGHRIKEELFYPSNEEKMRLLQTLIEEEWPDRAIIFANTKHRCEEIWGHLAADGHRVGLLTGDVAQKKRLRILDEFTRGDLDILVATDVAARGLHIPAVTHVFNYDLPDDCEDYVHRIGRTGRAGASGHSISLACEEYALNLPAIETYIGHSIPVSKYNPDALMTDLPKPLRLTRPRTGNGPRRTGAPRNRRRSG
B1 gave a stoichiometry N (RhlB protomer per RNase E protomer) [1] of 1.

B2: PNPase, endogenous, in the cell-extracted FLAG-tagged degradosome (enzyme)
chain: MLNPIVRKFQYGQHTVTLETGMMARQATAAVMVSMDDTAVFVTVVGQKKAKPGQDFFPLTVNYQERTYAAGRIPGSFFRREGRPSEGETLIARLIDRPIRPLFPEGFVNEVQVIATVVSVNPQVNPDIVAMIGASAALSLSGIPFNGPIGAARVGYINDQYVLNPTQDELKESKLDLVVAGTEAAVLMVESEAQLLSEDQMLGAVVFGHEQQQVVIQNINELVKEAGKPRWDWQPEPVNEALNARVAALAEARLSDAYRITDKQERYAQVDVIKSETIATLLAEDETLDENELGEILHAIEKNVVRSRVLAGEPRIDGREKDMIRGLDVRTGVLPRTHGSALFTRGETQALVTATLGTARDAQVLDELMGERTDTFLFHYNFPPYSVGETGMVGSPKRREIGHGRLAKRGVLAVMPDMDKFPYTVRVVSEITESNGSSSMASVCGASLALMDAGVPIKAAVAGIAMGLVKEGDNYVVLSDILGDEDHLGDMDFKVAGSRDGISALQMDIKIEGITKEIMQVALNQAKGARLHILGVMEQAINAPRGDISEFAPRIHTIKINPDKIKDVIGKGGSVIRALTEETGTTIEIEDDGTVKIAATDGEKAKHAIRRIEEITAEIEVGRVYTGKVTRIVDFGAFVAIGGGKEGLVHISQIADKRVEKVTDYLQMGQEVPVKVLEVDRQGRIRLSIKEATEQSQPAAAPEAPAAEQGE
In the case of B2, the “PNPase component in aceE/aceF-null cells relative to wild-type control cells” value [2] is reported as ~3 fold and the “stoichiometry N” value [2] is reported as ~2 PNPase monomers per RNase E monomer.

B3: RNase E(628–843) (domain or fragment)
chain: ERTEGSDNREENRRNRRQAQQQTAETRESRQQAEVTEKARTADEQQAPRRERSRRRNDDKRQAQQEAKALNVEEQSVQETEQEERVRPVQPRRKQRQLNQKVRYEQSVAEEAVVAPVVEETVAAEPIVQEAPAPRTELVKVPLPVVAQTAPEQQEENNADNRDNGGMPRRSRRSPRHLRVSGQRRRRYRDERYPTQSPMPLTVACASPELASGKVW
B3: binds [3].
